Assay results reported in PMC11963481, “The Vacuolar Inositol Transporter BvINT1;1 Contributes to Raffinose Biosynthesis and Reactive Oxygen Species Scavenging During Cold Stress in Sugar Beet” (Plant, Cell & Environment, 2025).

System: T1, O[C@H]1[C@H](O)[C@@H](O)[C@H](O)[C@@H](O)[C@H]1O
T1 construct: full-length CDS with C-terminal dileucine motif mutated (LL489/490AA) for plasma membrane targeting; cRNA-injected Xenopus laevis oocytes
Assay: two-electrode voltage clamp, inward currents in Xenopus oocytes, Michaelis-Menten fit
Assay type: cell-based, Beta vulgaris
Settings: pH 5.5, room temperature, holding potential -20 mV, 96 mM NaCl bath, inositol/H+ symport, n = 7 oocytes

## BvINT1;1 LL489/490AA (INT1;1^PM, BvINT1;1^PM) (Beta vulgaris subsp. vulgaris; L489A/L490A)
  Km: 2300 ± 300 µM
